This assay concerns the target Mtb ClpB M-domain motif 2 protein (residues 467–518) (Mycobacterium tuberculosis, UniProt P9WPD1 467-518). Briefly: ITC. On the technique in general: Isothermal titration calorimetry measures the heat released or taken up as one component is titrated into another.

Sequence of Mtb ClpB M-domain motif 2 protein (residues 467–518) (P9WPD1 467-518): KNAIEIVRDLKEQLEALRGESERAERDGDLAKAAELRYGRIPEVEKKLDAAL

B1: Mtb DnaK NBD (residues 1–359) (domain or fragment)
chain: MARAVGIDLGTTNSVVSVLEGGDPVVVANSEGSRTTPSIVAFARNGEVLVGQPAKNQAVTNVDRTVRSVKRHMGSDWSIEIDGKKYTAPEISARILMKLKRDAEAYLGEDITDAVITTPAYFNDAQRQATKDAGQIAGLNVLRIVNEPTAAALAYGLDKGEKEQRILVFDLGGGTFDVSLLEIGEGVVEVRATSGDNHLGGDDWDQRVVDWLVDKFKGTSGIDLTKDKMAMQRLREAAEKAKIELSSSQSTSINLPYITVDADKNPLFLDEQLTRAEFQRITQDLLDRTRKPFQSVIADTGISVSEIDHVVLVGGSTRMPAVTDLVKELTGGKEPNKGVNPDEVVAVGAALQAGVLKGE
With B1, the “stoichiometry N” value is approximately 1.

A word on the stoichiometry N: it is the number of molecules, sites or subunits per partner or assembly.

The record behind these values is article PMC8209680 (Cell reports, 2021).
